Laboratory results from US20150064134A1.

Key:
Assay in all cases: cell-based or functional assay
[1] = target: IR(h), activated (human) (UniProt P06213)
[2] = target: Plk3(h) (human) (UniProt Q9H4B4)
[3] = target: T1, Ret(h) (human) (UniProt P07949)
T1 sequence (looked up): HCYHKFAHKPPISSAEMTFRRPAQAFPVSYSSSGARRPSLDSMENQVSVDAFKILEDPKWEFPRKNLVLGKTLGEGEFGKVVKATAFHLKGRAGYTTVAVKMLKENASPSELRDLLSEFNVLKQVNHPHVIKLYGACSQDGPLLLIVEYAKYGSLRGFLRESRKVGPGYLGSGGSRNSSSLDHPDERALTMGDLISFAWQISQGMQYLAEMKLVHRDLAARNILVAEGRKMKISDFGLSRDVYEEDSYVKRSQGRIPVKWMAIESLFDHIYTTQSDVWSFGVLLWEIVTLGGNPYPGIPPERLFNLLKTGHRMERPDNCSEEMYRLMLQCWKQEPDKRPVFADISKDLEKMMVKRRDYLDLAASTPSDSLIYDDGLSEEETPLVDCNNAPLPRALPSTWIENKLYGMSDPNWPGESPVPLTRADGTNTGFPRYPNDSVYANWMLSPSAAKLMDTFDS

[4] = target: Pim-2(h) (human) (UniProt Q9P1W9)
[5] = target: EphB4(h) (human) (UniProt P54760)
EphB4(h) (human), sequence (P54760 561-987 limits assumed): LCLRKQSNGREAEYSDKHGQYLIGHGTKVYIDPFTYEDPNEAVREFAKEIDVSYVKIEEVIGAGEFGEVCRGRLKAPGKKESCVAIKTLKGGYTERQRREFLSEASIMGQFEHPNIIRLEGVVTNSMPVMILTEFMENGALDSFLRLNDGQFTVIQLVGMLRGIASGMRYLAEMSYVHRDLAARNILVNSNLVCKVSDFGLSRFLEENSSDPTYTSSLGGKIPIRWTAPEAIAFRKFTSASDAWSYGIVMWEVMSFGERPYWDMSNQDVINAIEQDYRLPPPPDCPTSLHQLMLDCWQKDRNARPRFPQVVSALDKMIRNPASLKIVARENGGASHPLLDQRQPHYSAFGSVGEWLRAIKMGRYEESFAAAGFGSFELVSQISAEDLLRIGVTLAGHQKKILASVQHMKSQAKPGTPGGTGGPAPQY

[6] = target: EphB3(h) (human) (UniProt P54753)
EphB3(h) (human), sequence (P54753 581-998 limits assumed): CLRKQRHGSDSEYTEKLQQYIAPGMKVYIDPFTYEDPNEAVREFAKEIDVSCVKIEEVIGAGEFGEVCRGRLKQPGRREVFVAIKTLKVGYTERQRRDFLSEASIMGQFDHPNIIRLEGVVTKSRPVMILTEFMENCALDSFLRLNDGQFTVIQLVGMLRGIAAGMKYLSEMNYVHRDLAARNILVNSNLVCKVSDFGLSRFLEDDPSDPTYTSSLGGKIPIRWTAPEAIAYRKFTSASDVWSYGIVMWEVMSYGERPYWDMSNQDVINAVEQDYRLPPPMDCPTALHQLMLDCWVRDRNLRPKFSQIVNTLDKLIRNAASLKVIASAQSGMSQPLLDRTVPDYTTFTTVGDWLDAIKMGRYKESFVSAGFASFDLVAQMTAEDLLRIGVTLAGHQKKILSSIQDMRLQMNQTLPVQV

[7] = target: CK1δ(h) (human) (UniProt P48730)
[8] = target: CaMKIIδ(h) (human) (UniProt Q13557)
[9] = target: MAPKAP-K2(h) (human) (UniProt P49137)
[10] = target: HIPK1(h) (human) (UniProt Q86Z02)
[11] = target: EphB1(h) (human) (UniProt P54762)
EphB1(h) (human), sequence (P54762 564-984 limits assumed): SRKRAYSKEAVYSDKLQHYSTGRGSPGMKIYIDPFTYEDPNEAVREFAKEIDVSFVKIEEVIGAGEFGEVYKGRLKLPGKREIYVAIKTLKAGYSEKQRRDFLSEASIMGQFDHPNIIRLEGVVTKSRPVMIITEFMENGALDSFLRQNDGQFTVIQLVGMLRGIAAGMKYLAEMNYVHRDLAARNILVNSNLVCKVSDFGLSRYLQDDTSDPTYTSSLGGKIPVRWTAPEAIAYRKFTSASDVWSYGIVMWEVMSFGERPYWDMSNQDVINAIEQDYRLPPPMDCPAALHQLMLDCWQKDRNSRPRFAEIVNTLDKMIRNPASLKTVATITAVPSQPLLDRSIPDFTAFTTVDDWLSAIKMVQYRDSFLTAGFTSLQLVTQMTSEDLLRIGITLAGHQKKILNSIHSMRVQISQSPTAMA

[12] = target: T2, NEK2(h) (human) (UniProt P51955)
T2 sequence (looked up): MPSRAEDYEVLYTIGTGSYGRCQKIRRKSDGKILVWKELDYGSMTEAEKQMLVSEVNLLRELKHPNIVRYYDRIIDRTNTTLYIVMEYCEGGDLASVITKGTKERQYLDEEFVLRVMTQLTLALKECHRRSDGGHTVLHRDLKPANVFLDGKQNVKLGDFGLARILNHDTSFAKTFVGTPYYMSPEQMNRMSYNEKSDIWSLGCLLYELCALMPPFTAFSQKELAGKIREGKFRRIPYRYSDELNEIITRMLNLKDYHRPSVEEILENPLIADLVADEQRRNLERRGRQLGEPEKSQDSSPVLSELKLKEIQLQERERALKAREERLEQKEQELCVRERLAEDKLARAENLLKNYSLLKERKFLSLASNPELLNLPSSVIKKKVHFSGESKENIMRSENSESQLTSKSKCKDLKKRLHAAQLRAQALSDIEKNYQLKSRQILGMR

[13] = target: T3, SAPK3(h) (human) (UniProt P53778)
T3 sequence (looked up): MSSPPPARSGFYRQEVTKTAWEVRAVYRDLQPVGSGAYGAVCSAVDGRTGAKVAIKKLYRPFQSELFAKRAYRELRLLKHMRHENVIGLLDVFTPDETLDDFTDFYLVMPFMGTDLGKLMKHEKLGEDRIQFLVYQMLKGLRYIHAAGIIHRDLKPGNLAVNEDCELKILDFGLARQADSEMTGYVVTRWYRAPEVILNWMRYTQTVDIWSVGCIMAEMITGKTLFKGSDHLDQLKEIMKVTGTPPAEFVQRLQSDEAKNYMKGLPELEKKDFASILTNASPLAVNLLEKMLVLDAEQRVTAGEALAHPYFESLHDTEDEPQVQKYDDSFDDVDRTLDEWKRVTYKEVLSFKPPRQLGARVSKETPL

[14] = target: T4, BrSK1(h) (human) (UniProt Q8TDC3)
T4 sequence (looked up): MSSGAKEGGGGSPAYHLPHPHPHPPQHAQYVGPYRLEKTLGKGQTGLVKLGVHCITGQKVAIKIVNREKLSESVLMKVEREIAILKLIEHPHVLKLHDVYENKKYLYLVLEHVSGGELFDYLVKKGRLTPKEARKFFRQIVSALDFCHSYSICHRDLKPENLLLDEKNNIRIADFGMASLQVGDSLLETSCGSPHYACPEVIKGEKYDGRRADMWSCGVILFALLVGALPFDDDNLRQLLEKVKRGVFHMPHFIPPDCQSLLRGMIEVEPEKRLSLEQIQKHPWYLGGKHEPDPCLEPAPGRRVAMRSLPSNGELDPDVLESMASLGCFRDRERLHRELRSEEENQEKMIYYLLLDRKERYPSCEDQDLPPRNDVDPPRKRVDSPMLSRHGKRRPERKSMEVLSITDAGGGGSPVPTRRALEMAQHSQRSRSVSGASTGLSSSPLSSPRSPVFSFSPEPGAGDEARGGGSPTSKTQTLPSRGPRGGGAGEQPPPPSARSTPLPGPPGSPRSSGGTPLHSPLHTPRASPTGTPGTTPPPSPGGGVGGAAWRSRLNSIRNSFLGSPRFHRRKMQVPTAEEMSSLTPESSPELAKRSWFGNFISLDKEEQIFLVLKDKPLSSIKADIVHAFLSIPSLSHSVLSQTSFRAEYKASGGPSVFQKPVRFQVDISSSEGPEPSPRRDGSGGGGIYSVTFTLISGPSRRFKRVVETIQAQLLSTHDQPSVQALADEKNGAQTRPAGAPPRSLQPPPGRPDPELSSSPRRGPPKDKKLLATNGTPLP

[15] = target: DAPK1(h) (human) (UniProt P53355)
[16] = target: NEK7(h) (human) (UniProt Q8TDX7)

IR(h), activated (human), sequence (P06213 1005-1310 limits assumed): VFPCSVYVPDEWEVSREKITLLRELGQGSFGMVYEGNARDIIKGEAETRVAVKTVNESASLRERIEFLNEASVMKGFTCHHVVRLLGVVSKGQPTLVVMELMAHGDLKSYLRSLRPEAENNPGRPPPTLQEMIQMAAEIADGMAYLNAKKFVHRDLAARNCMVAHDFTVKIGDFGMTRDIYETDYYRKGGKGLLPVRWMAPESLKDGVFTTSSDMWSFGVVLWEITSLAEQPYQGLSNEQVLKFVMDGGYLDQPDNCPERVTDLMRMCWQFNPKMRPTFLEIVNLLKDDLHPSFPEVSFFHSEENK

Substance | % activity at 100 µM [1] [%] | % activity at 100 µM [2] [%] | % activity at 100 µM [3] [%] | % activity at 100 µM [4] [%] | % activity at 100 µM [5] [%] | % activity at 100 µM [6] [%] | % activity at 100 µM [7] [%] | % activity at 100 µM [8] [%] | % activity at 100 µM [9] [%] | % activity at 100 µM [10] [%] | % activity at 100 µM [11] [%] | % activity at 100 µM [12] [%] | % activity at 100 µM [13] [%] | % activity at 100 µM [14] [%] | % activity at 100 µM [15] [%] | % activity at 100 µM [16] [%]
MMI-0300 (peptide) | 79 | 127 | 140 | 76 | 44 | 62 | 92 | 1 | 5 | 74 | 44 | 78 | 84 | 67 | 46 | 84
MMI-0400 (peptide) | 59 | 129 | 145 | 92 | 28 | 47 | 93 | 2 | 5 | 91 | 58 | 61 | 79 | 76 | 36 | 87
MMI-0500 (peptide) | 90 | 122 | 174 | 46 | 38 | 79 | 78 | 1 | 9 | 47 | 37 | 0 | 24 | 72 | 0 | 89
